Data: PMC3230630

How the values were obtained:
[1] = biological target: CLAcrB_(P223G/V225C/A777C) (E. coli) (UniProt P31224); assay: native gel or EMSA; blue native (BN)-PAGE of freshly purified protein, 4–20% gradient gel, no DTT
[2] = biological target: CLAcrB_(P223G/V225C/A777C) (E. coli) (UniProt P31224); assay: cross-linking; inter-subunit disulfide trapping (C225–C777) in vivo: membrane vesicles from BW25113ΔacrB extracted in the presence of IAM, SDS-PAGE without DTT, Western blot with anti-AcrB
[3] = biological target: wild type (WT) AcrB (E. coli) (UniProt P31224); assay: native gel or EMSA; blue native (BN)-PAGE of freshly purified protein, 4–20% gradient gel, no DTT

## CLAcrB_(P223G/V225C/A777C) (from UniProt P31224 1-1049) (natural protein)
[1]
  stoichiometry N: 3
[2]
  stoichiometry N: 3

## wild type (WT) AcrB (from UniProt P31224 1-1049) (natural protein)
[3]
  stoichiometry N: 3
